{"source": "the DeepSol protein solubility set", "data": [{"assay": "soluble on expression in E. coli; label from the status in PepcDB or PDB records", "values": [{"sequence": "MGHHHHHHSHPRRLAWCSIDWEQVCLLQRLGAGGFGSVYKATYRGVPVAIKQVNKCTKNRLASRRSFWAELNVARLRHDNIVRVVAASTRTPAGSNSLGTIIMEFGGNVTLHQVIYGAAGHPEGDAGEPHCRTGGQLSLGKCLKYSLDVVNGLLFLHSQSIVHLDLKPANILISEQDVCKISDFGCSEKLEDLLCFQTPSYPLGGTYTHRAPELLKGEGVTPKADIYSFAITLWQMTTKQAPYSGERQHILYAVVAYDLRPSLSAAVFEDSLPGQRLGDVIQRCWRPSAAQRP", "soluble on expression in E. coli": "not soluble"}, {"sequence": "MSLSNWPYPRIVAHRGGGKLAPENTLASIDVGAKYGHKMIEFDAKLSKDGEIFLLHDDNLERTSNGWGVAGELNWQDLLRVDAGSWYSKMFKGEPLPLLSQVAERCREHGMMANIEIKPTTGTGPLTGKMVALAARELWAGMTPPLLSSFEIDALEAAQQAAPELPRGLLLDEWRDDWRELTARLGCVSIHLNHKLLNKARVMQLKDAGLRILVYTVNKPQRAAELLRWGVDCICTDAIDVIGPNFTAQEGHHHHHH", "soluble on expression in E. coli": "soluble"}, {"sequence": "MSQTAAPLAQLNAMDTAQFVRTLGGIYEHSPWVAEQAAGQRPFASADALAAAMRRAVDGAGEGPQLKLVRAHPELAGKAAVRGELTAESTREQASAGLDQCSPEEFARLQALNARYNDKFGFPFILAVRGYDRHGIIDVFARRLENDRATELRASLEQIHRIAGFRLHDLISGKLAAALEHHHHHH", "soluble on expression in E. coli": "not soluble"}, {"sequence": "MGSDKIHHHHHHMTNLVTLENVSVAFGQRRVLSDISLALTPGKILTLLGPNGAGKSTLVRVVLGLVAPTEGVIKRDARLRIGYVPQKLHLDATLPLTVSRFLRLRPGTRKDDILPALKRVQAGHLIDAPMQKLSGGETQRVLLARALLNRPQLLVLDEPTQGVDVNGQVALYDLINQLRHELDCAVLMVSHDLHLVMAKTDEVLCLNQHICCSGAPEVVSMHPEFISMFGPRGAEQLGIYRHHHNHRHDLQGRIVLRRGNSR", "soluble on expression in E. coli": "not soluble"}, {"sequence": "SLKVAIFDAFNGASGDMILASLLGVGISEEEIDEVVKALGIDVNYSMTTVSVRGISARRVEVEERDGERSFKEVLEIIRSSNLEEGVKKNAIAVFELIARAEGKVHGRDYREGVFHEVGADDAIFDVVCCVKAFENLKTAGYEFFATPVRAGSGFVEFSHGKYPVPPPAVLEILKSSNLEVVMDGEGELLTPTGAAILSHYCKPLKPFPIRVKEVSYGAGKRETDVPNVLRLILGETAFHDSIVVIETSVDDLSGEMIGYAMKKLLERDDVLDAVIIPAYGKKMRPASILKVISPTHRSEEVAAEVMRLTGSLGIRIIPVHHRLISERMEEVVKVEISGKEFDVRVKRSYPGFRHLKPEFDDIAVIADELNIPPHVVYREIVRKIVGAENADSNGQ", "soluble on expression in E. coli": "soluble"}, {"sequence": "MGSDKIHHHHHHMAFWQSKTLTEMTSQEWESLCDGCGKCCLNKLIDDETEELYYTNAACLLLDHQTTSCQHYSDRFRYVPQCTVITAQNVHELTWLPDSCAYRRLAAGRALPSWHPLLTGSKDAMHLAGMSIQGKVVDERRVKDIEDHIVLWPLKDLD", "soluble on expression in E. coli": "not soluble"}, {"sequence": "MELKKLMGHISIIPDYRQAWKMEHKLSDILLLTICAVISGAEGWEDIEDFGETHPDFLKQYGDFENGIPVHDTIARVVSCISPAKFHECFINWMRDCHSSDDKDVIAIDGKTLRHSYDKSRRRGAIHVISAFSTMHSLVIGQIKTDEKSNEITAIPELLNMLDIKGKIITTDAMGCQKDIAEKIQKQGGDYLFAVKGNQGRLNKAFEEKFPLKELNNPAHDSYAMSEKSHGREEIRLHIVCDVPDELIDFTFEWKGLKKLCVAVSFRSIIAEQKKELEMTVRYYISSADLTAEKFATAIRNHWHVENKLHWRLDVVMNEDDCKIRRGNAAELFSGIRHIAINILTNDKVFKAGLRRKMRKAAMDRNYLASVLTGSGLS", "soluble on expression in E. coli": "soluble"}, {"sequence": "AIAARPPPDPLYILRGSGASVNALHFCCDGDGPPLLYSGSGKGAVHVWNLSTRRAERVLESHAGNSVIWLNTFNNSRSCLISQGRDMRVCVWDLSEGRSAVTDSLHTGSVGFCQCSLLGSRLGSTLLAHPTQHMEEVSVVEMSSWTQVCSLKPDSNLGMLMSMKMWQADSGPVLCAGYEDGSVVLWDVSHRRPFSLLKVHPEPVMSLDVDVCRQKGISGSSENILQSWRLDNQQSLQMHDSIQMTNPGVSQLRIRADGKILASAGWDNNIRVFGWKKLKPLAVLQHHTDMVNSVAFSDHQDPTQRLLAAGSKDQRISVWSIYSES", "soluble on expression in E. coli": "soluble"}, {"sequence": "TRPIFAIEQLSPYQNVWTIKARVSYKGEIKTWHNQRGDGKLFNVNFLDTSGEIRATAFNDFATKFNEILQEGKVYYVSKAKLQPAKPQFTNLTHPYELNLDRDTVIEECFDESN", "soluble on expression in E. coli": "soluble"}]}]}
